Experiments:
[1] = target: T1, recombinant human ILT4 (LILRB2) (human, UniProt Q8N423 22-460); experiment: SPR, high resolution kinetics, triplicate, LALA antibody
T1 construct: Bought protein (Acro Biosystems or R&D Systems); also called ILTR4

[2] = target: T1, recombinant human ILT4 (LILRB2); experiment: SPR, Biacore T200, mAb captured on anti-Fc, ILT4 injected, medium resolution, 25 C
Description: (§1) Label-free SPR analysis on a Biacore T200 instrument was utilized to measure antibody affinity to ILT4. CM4 sensor chips from Cytiva Inc. were utilized for all medium resolution analyses. Either anti-mouse Fc specific or anti-human Fc specific capture surfaces were prepared using standard amine coupling chemistry. Mouse, Chimera or Humanized mAbs were captured to their respective surfaces and ILT4 was injected across the surfaces from 101 nM to 0.79 nM in a 2-fold serial dilution series at a flow rate of 100 μL/min. The association phase was followed for 90 sec. while the dissociation phase was followed for 1200 sec. due to the medium resolution analysis implemented here. The sensorgrams were double-referenced and fit globally to a 1:1 interaction model with a term included for mass transport, and the equilibrium dissociation constant was calculated as KD=koff/kₒₙ. […] All kinetic experiments were performed at 25° C. in a buffer consisting of Hepes-buffered saline, pH 7.4, with 0.05% polysorbate 20 (HBS-P+) and 100 μg/ml Bovine Serum Albumin (BSA).

[3] = target: T1, recombinant human ILT4 (LILRB2); experiment: SPR, Biacore 8K, mAb captured on anti-human Fc, LILRB2 at 100 nM; legend: ++++ tight binding (<100 pM KD)
Description: (§2) SPR was used to determine the specificity of four humanized anti-ILT4 mAbs for binding to LILRB2 and to determine any cross-reactivity with nine other LILRA and LILRB family members. LILR proteins were purchased from Acro Biosystems or R&D Systems, with sequence provided below. The studies were performed with a Biacore 8K instrument using a CM4 sensor chip with a running buffer of HBS-P+, 100 μg/mL BSA. Anti-human Fc specific capture surfaces were prepared using standard amine coupling chemistry. MAb was captured to flow cell 2 with flow cell 1 serving as the reference flow cell. Each of the nine family members and LILRB2 were injected at 100 nM at 30 μL/min for 90 sec with 240 sec of dissociation. […] All sensorgrams were doubled-referenced during processing of the data.

[4] = target: T1, recombinant human ILT4 (LILRB2); experiment: KinExA, solution equilibrium, n-curve analysis
Description: Kinetic Exclusion Assay (KinExA®) was performed to measure the equilibrium binding affinity and kinetics between human ILT4 and four humanized LALA-Fc modified antibodies in solution. For affinity analysis, the equilibrium dissociation constant, KD, was experimentally determined and reflects the strength of the binding interaction. The rate of association, kₒₙ, was also experimentally determined, while the rate of dissociation, koff, is calculated based on the following equation: koff=KD×kₒₙ
The binding affinity (KD), association (kₒₙ), and dissociation rate constants (koff) were measured for 4 different Humanized LALA IgG antibodies to ILT4 using KinExA. An n-curve analysis of at least two different curves, run at two different CBP concentrations, was used to determine the KD of the interactions The ILT4 was used as the concentration reference for all curves. All of the binding systems have low error and well defined 95% confidence intervals giving confidence to the measurements: […]

[5] = target: T2, LILRA6 (human, UniProt Q6PI73 24-447); experiment: SPR, Biacore 8K, mAb captured on anti-human Fc, analyte injected
T2 construct: Bought protein; limits of the extracellular domain are marked by bold type not visible here; whole entry named; also called recombinant human LILRA6
T2 sequence (Q6PI73 other isoform, or with tags, fused parts or gaps): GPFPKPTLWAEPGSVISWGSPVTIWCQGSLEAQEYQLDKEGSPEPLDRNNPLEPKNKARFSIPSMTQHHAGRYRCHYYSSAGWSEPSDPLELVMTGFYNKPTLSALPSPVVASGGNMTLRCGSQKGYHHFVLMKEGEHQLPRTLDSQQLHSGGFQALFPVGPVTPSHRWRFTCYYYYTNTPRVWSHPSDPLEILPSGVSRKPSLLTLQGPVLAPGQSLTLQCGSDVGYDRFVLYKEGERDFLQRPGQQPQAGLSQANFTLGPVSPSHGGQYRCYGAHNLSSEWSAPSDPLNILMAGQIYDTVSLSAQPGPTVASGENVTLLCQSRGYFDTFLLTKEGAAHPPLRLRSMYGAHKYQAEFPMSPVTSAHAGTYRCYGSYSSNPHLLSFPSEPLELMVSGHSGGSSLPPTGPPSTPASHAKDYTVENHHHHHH
Description: as §2

[6] = target: T3, LILRB4 (human, UniProt Q8NHJ6 22-259); experiment: as above
T3 construct: Bought protein; limits of the extracellular domain are marked by bold type not visible here; whole entry named; also called recombinant human LILRB4; ILT3
T3 sequence (Q8NHJ6 other isoform, or with tags, fused parts or gaps): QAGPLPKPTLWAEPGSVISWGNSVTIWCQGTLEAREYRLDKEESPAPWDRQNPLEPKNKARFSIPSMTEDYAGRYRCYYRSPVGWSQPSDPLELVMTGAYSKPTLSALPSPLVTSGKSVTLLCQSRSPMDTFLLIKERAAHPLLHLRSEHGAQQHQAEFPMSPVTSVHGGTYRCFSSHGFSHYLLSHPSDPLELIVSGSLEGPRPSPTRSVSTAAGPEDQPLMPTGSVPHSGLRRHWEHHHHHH
Description: as §2

[7] = target: T4, LILRA1 (human, UniProt O75019 17-461); experiment: as above
T4 construct: Bought protein; limits of the extracellular domain are marked by bold type not visible here; whole entry named; also called recombinant human LILRA1
T4 sequence (O75019 other isoform, or with tags, fused parts or gaps): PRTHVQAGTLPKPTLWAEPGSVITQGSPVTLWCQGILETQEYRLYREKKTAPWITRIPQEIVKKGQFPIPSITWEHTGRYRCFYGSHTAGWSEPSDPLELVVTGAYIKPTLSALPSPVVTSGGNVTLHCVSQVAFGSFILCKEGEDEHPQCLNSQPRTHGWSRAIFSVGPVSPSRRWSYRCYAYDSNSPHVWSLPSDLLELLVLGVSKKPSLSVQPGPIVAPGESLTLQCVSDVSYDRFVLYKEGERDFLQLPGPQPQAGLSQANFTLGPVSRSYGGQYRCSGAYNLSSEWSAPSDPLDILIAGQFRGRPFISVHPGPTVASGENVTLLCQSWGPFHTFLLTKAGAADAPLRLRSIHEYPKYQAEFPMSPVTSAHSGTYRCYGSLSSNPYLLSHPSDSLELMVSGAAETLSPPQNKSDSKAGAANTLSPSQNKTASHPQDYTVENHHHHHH
Description: as §2

[8] = target: T5, LILRA3 (human, UniProt Q8N6C8 24-439); experiment: as above
T5 construct: Bought protein; limits of the part used are marked by bold type not visible here; whole entry named; also called recombinant human LILRA3
T5 sequence (Q8N6C8 24-439 A105V limits assumed): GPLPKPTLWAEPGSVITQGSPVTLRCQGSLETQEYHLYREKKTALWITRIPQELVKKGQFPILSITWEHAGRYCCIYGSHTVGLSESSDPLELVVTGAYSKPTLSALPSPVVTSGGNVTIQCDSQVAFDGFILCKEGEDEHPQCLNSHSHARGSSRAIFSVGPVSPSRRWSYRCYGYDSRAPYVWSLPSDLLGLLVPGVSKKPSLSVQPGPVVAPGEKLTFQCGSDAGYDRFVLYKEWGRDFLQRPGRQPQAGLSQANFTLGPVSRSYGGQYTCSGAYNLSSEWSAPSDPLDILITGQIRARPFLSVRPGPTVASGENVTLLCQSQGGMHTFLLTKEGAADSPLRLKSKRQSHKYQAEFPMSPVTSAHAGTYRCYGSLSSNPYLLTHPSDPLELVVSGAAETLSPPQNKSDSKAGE
Description: as §2

[9] = target: T6, LILRB1 (human, UniProt Q8NHL6 24-461); experiment: as above
T6 construct: Bought protein; limits of the extracellular domain are marked by bold type not visible here; whole entry named; also called recombinant human LILRB1; ILT2
T6 sequence (Q8NHL6 other isoform, or with tags, fused parts or gaps): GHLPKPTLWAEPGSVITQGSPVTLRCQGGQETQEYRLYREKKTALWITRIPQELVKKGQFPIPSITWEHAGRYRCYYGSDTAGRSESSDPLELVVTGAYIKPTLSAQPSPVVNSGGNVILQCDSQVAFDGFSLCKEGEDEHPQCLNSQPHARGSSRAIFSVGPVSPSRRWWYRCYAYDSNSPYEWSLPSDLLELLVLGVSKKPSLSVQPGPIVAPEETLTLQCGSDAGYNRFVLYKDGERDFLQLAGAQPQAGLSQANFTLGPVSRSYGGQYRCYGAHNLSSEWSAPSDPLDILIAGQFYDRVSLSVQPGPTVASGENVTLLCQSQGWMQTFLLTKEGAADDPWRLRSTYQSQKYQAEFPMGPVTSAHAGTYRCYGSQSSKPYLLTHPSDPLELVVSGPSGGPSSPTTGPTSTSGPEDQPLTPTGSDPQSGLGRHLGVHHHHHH
Description: as §2

[10] = target: T7, LILRA2 (human, UniProt Q8N149 24-449); experiment: as above
T7 construct: Bought protein; limits of the extracellular domain are marked by bold type not visible here; whole entry named; also called recombinant human LILRA2
T7 sequence (Q8N149 other isoform, or with tags, fused parts or gaps): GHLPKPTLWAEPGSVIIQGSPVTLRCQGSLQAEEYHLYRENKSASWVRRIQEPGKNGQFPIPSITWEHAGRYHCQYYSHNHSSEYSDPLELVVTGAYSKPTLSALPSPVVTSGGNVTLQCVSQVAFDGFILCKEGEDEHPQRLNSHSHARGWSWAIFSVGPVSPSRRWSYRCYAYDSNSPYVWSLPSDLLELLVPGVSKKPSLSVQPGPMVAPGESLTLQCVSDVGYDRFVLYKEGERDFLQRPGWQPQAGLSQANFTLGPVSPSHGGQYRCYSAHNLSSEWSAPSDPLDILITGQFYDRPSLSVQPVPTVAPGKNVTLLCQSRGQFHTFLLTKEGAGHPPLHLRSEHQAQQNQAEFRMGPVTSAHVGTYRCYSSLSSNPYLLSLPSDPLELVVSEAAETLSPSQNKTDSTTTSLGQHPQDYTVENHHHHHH
Description: as §2

[11] = target: T8, LILRB3 (human, UniProt O75022 24-443); experiment: as above
T8 construct: Bought protein; limits of the extracellular domain are marked by bold type not visible here; whole entry named; also called recombinant human LILRB3; ILT5
T8 sequence (O75022 other isoform, or with tags, fused parts or gaps): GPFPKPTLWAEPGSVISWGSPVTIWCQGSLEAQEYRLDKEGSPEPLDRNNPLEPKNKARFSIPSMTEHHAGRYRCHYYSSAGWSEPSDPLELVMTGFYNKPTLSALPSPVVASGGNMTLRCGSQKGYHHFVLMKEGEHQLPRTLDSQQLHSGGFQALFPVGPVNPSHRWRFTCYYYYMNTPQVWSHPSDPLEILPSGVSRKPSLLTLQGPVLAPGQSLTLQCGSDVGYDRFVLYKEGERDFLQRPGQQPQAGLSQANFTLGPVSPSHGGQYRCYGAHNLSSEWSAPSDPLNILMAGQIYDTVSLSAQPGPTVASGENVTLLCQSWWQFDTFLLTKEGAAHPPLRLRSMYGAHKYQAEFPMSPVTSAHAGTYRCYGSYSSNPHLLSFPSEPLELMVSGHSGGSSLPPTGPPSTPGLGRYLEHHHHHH
Description: as §2

[12] = target: T9, LILRA4 (human, UniProt P59901 24-446); experiment: as above
T9 construct: Bought protein; limits of the extracellular domain are marked by bold type not visible here; whole entry named; also called recombinant human LILRA4
T9 sequence (P59901 other isoform, or with tags, fused parts or gaps): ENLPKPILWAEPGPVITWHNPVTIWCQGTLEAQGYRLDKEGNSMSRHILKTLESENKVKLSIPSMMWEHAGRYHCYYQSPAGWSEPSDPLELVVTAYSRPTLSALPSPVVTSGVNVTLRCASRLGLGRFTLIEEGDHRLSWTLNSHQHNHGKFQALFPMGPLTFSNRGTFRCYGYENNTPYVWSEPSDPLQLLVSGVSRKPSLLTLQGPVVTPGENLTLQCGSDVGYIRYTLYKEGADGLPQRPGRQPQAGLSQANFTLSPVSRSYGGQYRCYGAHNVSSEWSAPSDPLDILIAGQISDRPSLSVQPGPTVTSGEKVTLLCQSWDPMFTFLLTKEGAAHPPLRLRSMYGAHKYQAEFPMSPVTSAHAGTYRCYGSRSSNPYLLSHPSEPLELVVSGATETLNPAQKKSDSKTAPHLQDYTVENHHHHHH
Description: as §2

[13] = target: T10, LILRA5 (human, UniProt A6NI73 42-268); experiment: as above
T10 construct: Bought protein; limits of the extracellular domain are marked by bold type not visible here; whole entry named; also called recombinant human LILRA5
T10 sequence (A6NI73 other isoform, or with tags, fused parts or gaps): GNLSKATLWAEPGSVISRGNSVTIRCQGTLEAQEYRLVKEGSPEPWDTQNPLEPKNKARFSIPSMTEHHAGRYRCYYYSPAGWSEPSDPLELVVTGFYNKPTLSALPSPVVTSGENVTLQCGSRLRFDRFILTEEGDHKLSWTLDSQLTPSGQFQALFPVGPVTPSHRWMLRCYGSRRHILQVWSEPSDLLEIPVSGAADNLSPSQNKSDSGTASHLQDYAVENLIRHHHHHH
Description: as §2

[14] = target: T1, recombinant human ILT4 (LILRB2); experiment: SPR, high resolution kinetics, triplicate, LALA antibody; 95% CI in parentheses
[15] = target: T11, human ILT4 expressed on cells (human, UniProt Q8N423 22-597); experiment: flow based HLA-G blocking assay
T11 construct: whole, on cells; The same entry is used for endogenous ILT4 of human macrophages; also called CHO-S/ILT4 cells; ILT4-CHO cells
T11 sequence (Q8N423 22-597): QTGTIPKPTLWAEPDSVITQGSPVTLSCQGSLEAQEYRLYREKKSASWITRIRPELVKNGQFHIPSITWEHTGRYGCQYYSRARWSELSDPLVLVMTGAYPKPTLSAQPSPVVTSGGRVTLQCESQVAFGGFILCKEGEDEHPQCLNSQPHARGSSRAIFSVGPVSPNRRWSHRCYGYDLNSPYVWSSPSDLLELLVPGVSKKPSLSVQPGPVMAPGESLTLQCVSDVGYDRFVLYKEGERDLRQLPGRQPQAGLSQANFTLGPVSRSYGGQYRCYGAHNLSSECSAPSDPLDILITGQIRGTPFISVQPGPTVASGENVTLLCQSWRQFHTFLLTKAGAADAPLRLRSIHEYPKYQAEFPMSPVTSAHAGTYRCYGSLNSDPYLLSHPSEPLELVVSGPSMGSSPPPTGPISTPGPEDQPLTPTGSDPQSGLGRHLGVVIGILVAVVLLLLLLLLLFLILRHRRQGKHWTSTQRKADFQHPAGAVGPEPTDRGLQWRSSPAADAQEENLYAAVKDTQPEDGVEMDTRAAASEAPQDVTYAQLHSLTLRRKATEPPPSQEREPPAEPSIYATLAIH

[16] = target: T1, recombinant human ILT4 (LILRB2); experiment: SPR, Biacore T200, medium resolution; koff held at its limit of 4.27e-5 s^-1
Description: as §1

[17] = target: T11, human ILT4 expressed on cells; experiment: flow cytometry, blockade of PE-HLA-G tetramer binding to CHO-S/ILT4 cells, experiment 2
Description: (§3) In the second blocking experiment, the primary antibody dilutions were made by diluting antibody to 15 μg/ml in FACS buffer. Three independent sets of eleven 2.5-fold serial dilutions were then made in FACS buffer from 15 μg/ml to 0.002 μg/ml. Each dilution set was handled independently, and 50 μl from each was added to cells in duplicate. Control wells received FACS buffer with no antibody. Wells were mixed and incubated for 30 minutes at 4 degrees C. Cells were washed twice in FACS buffer.
(§4) In both blocking experiments, phycoerythrin (PE)-conjugated HLA-G tetramer was diluted in FACS buffer to 5 μg/ml and 100 μl per well was added to cells. Cells were incubated at 4 degrees C. for 30 minutes, washed twice in FACS buffer, and resuspended in 250 μl FACS buffer with 0.1 μg/ml propidium iodide.
(§5) Cells were acquired on an Attune flow cytometer, with 5000 propidium iodide-negative cells collected per sample, and MFI was recorded. Relative blocking activity was calculated with the following formula: 100−(Sample MFI−Background MFI)/(Top MFI−Background MFI)*100. Prism software (Graphpad) was used to plot MFI and relative blocking activity for each sample. The blocking potency for each antibody, represented as IC₅₀, was calculated with Prism software.

[18] = target: T11, human ILT4 expressed on cells; experiment: flow cytometry, blockade of PE-HLA-G tetramer (5 µg/ml) binding to CHO-S/ILT4 cells, experiment 2
Description: as §3, §4, §5

[19] = target: T11, human ILT4 expressed on cells; experiment: cell-based or functional assay
[20] = target: T11, human ILT4 expressed on cells; experiment: flow cytometry blocking assay: ILT4-expressing CHO cells preincubated with antibody, then PE-HLA-G; HLA-G binding MFI falls from about 105000 (no antibody) to near 0
Description: as §3, §4, §5

T1 sequence (Q8N423 other isoform, or with tags, fused parts or gaps limits assumed): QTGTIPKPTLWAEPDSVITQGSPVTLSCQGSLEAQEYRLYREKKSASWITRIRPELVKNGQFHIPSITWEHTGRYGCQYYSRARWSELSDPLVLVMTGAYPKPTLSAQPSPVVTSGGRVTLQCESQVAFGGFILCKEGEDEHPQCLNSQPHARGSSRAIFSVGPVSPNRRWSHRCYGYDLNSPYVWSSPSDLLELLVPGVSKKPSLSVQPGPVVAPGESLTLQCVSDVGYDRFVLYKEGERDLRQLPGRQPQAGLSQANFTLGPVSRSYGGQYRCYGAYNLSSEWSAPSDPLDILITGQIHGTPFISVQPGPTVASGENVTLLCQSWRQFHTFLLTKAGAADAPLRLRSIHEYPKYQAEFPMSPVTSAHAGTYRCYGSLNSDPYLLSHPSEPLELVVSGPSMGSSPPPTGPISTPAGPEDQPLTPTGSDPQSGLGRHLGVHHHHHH

B1: Hz77-LALA (antibody, human IgG1, kappa, L234A L235A, V domains shown)
VH: QVQLVQSGAEVKKPGSSVKVSCKASGYSFTGYSVNWVRQAPGQGLEWIGRINPYNGDIFNNQKFKGRATITVDKSTSTAYMELSSLRSEDTAVYYCARGTTVGGAWFAYWGQGTLVTVSS
VL: DIVMTQSPDSLAVSLGERATINCRASESVDSYGYSFLHWYQQKPGQPPKLLIYLASNLESGIPDRFSGSGSGTDFTLTISSLQAEDVAVYYCQQSNEDLMYTFGGGTKVEIKR
notes: Humanized L77S2, human IgG1 L234A/L235A, kappa; also called Humanized 77_01; Hz 77 01
Question: B1 was tested. Which Kd [1] did it give?
Answer: 8.9 pM

Question: And the koff [1]?
Answer: 4.24e-05 s⁻¹

Question: And the kon [2]?
Answer: 835000 M⁻¹ s⁻¹

Question: What about the KD [3] of the same binder?
Answer: < 100 pM

Question: What about the Kd [4] of the same binder?
Answer: 5.46 pM

Question: Does B1 bind [5]?
Answer: no binding (tested: 100 nM)

Question: Does B1 bind [6]?
Answer: no binding (tested: 100 nM)

Question: Does B1 bind [7]?
Answer: no binding (tested: 100 nM)

Question: Does B1 bind [8]?
Answer: no binding (tested: 100 nM)

Question: Does B1 bind [9]?
Answer: no binding (tested: 100 nM)

Question: Does B1 bind [10]?
Answer: no binding (tested: 100 nM)

Question: Does B1 bind [11]?
Answer: no binding (tested: 100 nM)

Question: Does B1 bind [12]?
Answer: no binding (tested: 100 nM)

Question: Does B1 bind [13]?
Answer: no binding (tested: 100 nM)

Question: What about the kon [14] of the same binder?
Answer: 4.78e+06 M⁻¹ s⁻¹

Question: And the IC50 [15]?
Answer: 0.176 µg/mL

Question: And the Kd [16]?
Answer: ≤ 52 pM

Question: And the koff [16]?
Answer: ≤ 4.27e-05 s⁻¹

B2: L41S5 (antibody, IgG2a, V domains shown)
VH: QVQLQQSGAELVKPGASVKISCKASGYAFSSYWMNWVKQRPGKGLEWIGQIYPGHGDTNYNGKFKGKATLTADKSSSTAYMQLSSLTSEDSAVYFCAKEGSELGRLFAYWGQGTLVTVSA
VL: QIVLTQSPALMSASPGEKVTMTCSASSSVSFMYWYQQKPRSSPKPWIYLTSNLASGVPARFSGSGSGTSYSLTISSMEAEDAATYYCQQWSSNPPTFGGGTKLEIK
notes: also called mouse anti-human ILT4 antibody L41S5
Question: What does the source list for B2?
Answer: fold decrease of PE-HLA-G MFI [17]: ≤ 14 fold; IC50 [18]: 0.134 µg/mL

B3: L45S4 (antibody, IgG2a, V domains shown)
VH: EVQLQQSGPELVKPGASVKISCKASGYTFTDYYMNWVKQSHGKSLEWIGDINPNNGGTSYNQKFKGKATLTVDKSSSTAYMELRSLTSEDSAVYYCARGGAELTGTYWYFDVWGTGTTVTVSS
VL: DIQMTQSPASLSISVGETVTITCRASENIYSNLAWYQQKQGKSPQVLVYGATNLADGVPSRFSGSGSGTQYSLKIKSLQSEDFGSYYCQHFWDSPFTFGSGTKLEIK
notes: also called Murine 45; mouse anti-human ILT4 antibody L45S4
Question: Which results are given for B3?
Answer: Kd [2]: 210 pM; koff [2]: 8.4e-05 s⁻¹; kon [2]: 401000 M⁻¹ s⁻¹; IL-6 secretion by LPS-stimulated M2 macrophages (MSD), fold over control [19]: 2 fold; IC50 [20]: 0.071 µg/mL; fold decrease of PE-HLA-G MFI [17]: ≤ 69 fold; IC50 [18]: 0.044 µg/mL

Reference: patent US20260167714A1 (COHERUS BIOSCIENCES, published 2026)
